Several values for one entry are separate records, joined by “and”; a condition that tells them apart may be missing. Equal entries are not always repeated.
Target: the molecule itself
Assay: cryo-EM structure

B1: Mpn444 (Mycoplasma pneumoniae lipoprotein, recombinant, without the N-terminal signal sequence, aa 28-1325) (natural protein, UniProt P75334 28-1325, looked up)
chain: CAQPTASTVEGLFKPSSAFADRTDFSLSSILQKSLINRESFNQYLAMRLAPVLRTFYEDNYDTDIKERLNGFTADTDNAFVSQEQNLRNQFRENYLVHLQTDIFDNTGGNQAAWKLRDVNNKIIDDFISRIFAKNFVEYVQDGVGPLTKPTKSLIENTSNFKNIKLQPKFVNKNAKLKINNDAVYAAIQDKLLDQFITNENPNLVSRVVFTNETPVDGFDNYFNTKVIQSPTPSYQFQVFNKYNQQSGGTKGANGFNLLASNLKSYKNDQSKGIDIPNKFSSDSGGKLLLKASDMFDTFDPSFSAAFIQGYLALQKKSKGADSKEVDSLIKDKSIIENFFVDNNTQAAAAARAASSSSEGTIQLKTASDGGGTTQSTVHKTDLVKIFGDKDVFAGEYKQQIGNTNANQTGGGGSGGGGGTSTGSSTGSSTETTTGNSSKAVVDLIEVKKDSSSQPDYILSRGKDGIHLMAVDGGSHYLTESGRDVAKQKKFLLFRALQTKYGLVDTDTTYDFKLFDEVKKYFDTNRILFLFEALLDLSSDTNNKDNFLSYPQFKKFADSIKSIEKDLKELVQAHYKQAVFNETAVAENKVTLKLAERNQPFIDNERNNQIEQNGLAAKLPYEQDAKTGHYNDLGNYYKDIIDNVDKKGTSTVKTTSSNTGQTKNFSEEVVSKLKDNKKKVEEAAKKHVEALKVFTIPSPLYSQVILVQTKLSFTPESTSLGLNLALNNYLTSTELQNSIKLSYFQEDEAFKKIIDITNLTFSQQSGGTGGTNGNNNLTADNWKIFKETYLLDLFESQAQKSIFGHVGSSDKNSSTKTGIEGVLDTLYSSLNLEERLDSDDVIDYLSYLYTAHWLLKDNLKNYKQSLQSKLSRTSNAFLVWSVDSEKNKNDSQSTLSSTASSTSNTGLIQLRSVVSLAQNQAAGQGGDNNSDITQTEVKNPNFVFGSSVYDWTNSKTPEVNRAADDTSSFFYTKSSSSSTGAAQSSATVLRSLNQASGMTTKTAKNRYGFRGIVTSSTSGSLPEAVSRRLFKQFVNQTEKGVKVGGQMLITTAKSGKATLVLKQQADDAESTTNNAYKGALFSFGSMDNLKNIINGIQTQTEFDALYNHLTSDLNIDVTGVDKNKTLTEQKTSLTSFVDSNFKQSTQSAQRGDTSARSARSATVQIKKTQEDNQNTNYKDVFSRFDGYIGDNKVEEKNYTSYQFLSDGGKYHATFVKQVNLDDVEKIGTDSLKQEDSSKDKRLNLSLEEFLAAIALEALDPNNQTQAINALISGNKKGLVKVGDFRIFSSISAQWVRRF
- stoichiometry N: 3 and 2
